Experimental findings from paper PMC8253768, “Structural plasticity of mumps virus nucleocapsids with cryo-EM structures” (Communications Biology, 2021) are described below.

The stoichiometry N is a count of units in the complex or per binding partner.

Series [1] addresses Aged MuV nucleoprotein (NWT kept at 4 °C for 4 weeks, digested by residual impurities) (mumps virus) (UniProt Q77IS8). Briefly: cryo-EM structure; filaments of NWT after 4 weeks of digestion at 4 °C; helical reconstruction of three classes (NC_(helix-dense), NC_(helix-hyper), N_(ring-stacked) with C13 symmetry); with enwrapped RNA.
Series [2] deals with the molecule itself. Briefly: cryo-EM structure; single particle analysis of freshly purified NWT rings with enwrapped E. coli RNA; ~1 mg/mL; 20 mM Tris-HCl pH 7.4, 150 mM NaCl; micrographs at 0°, 20° and 40° tilt; 2D classification and refinement with C13 or C14 symmetry.

Several values for one entry are separate records, joined by “and”; a condition that tells them apart may be missing. Identical values can stand only once.

In series [1], “Aged MuV nucleoprotein (NWT kept at 4 °C for 4 weeks, digested by residual impurities) (from UniProt Q77IS8 1-549) (domain or fragment)” returned a stoichiometry N of 13 protomers.

B1: Mumps virus (MuV) nucleoprotein, full length (1–549), freshly purified (natural protein)
chain: MSSVLKAFERFTIEQELQDRGEEGSIPPETLKSAVKVFVINTPNPTTRYQMLNFCLRIICSQNARASHRVGALITLFSLPSAGMQNHIRLADRSPEAQIERCEIDGFEPGTYRLIPNARANLTANEIAAYALLADDLPPTINNGTPYVHADVEGQPCDEIEQFLDRCYSVLIQAWVMVCKCMTAYDQPAGSADRRFAKYQQQGRLEARYMLQPEAQRLIQTAIRKSLVVRQYLTFELQLARRQGLLSNRYYAMVGDIGKYIENSGLTAFFLTLKYALGTKWSPLSLAAFTGELTKLRSLMMLYRGLGEQARYLALLEAPQIMDFAPGGYPLIFSYAMGVGTVLDVQMRNYTYARPFLNGYYFQIGVETARRQQGTVDNRVADDLGLTPEQRTEVTQLVDRLARGRGAGIPGGPVNPFVPPVQQQQPAAVYEDIPALEESDDDGDEDGGAGFQNGVQLPAVRQGGQTDFRAQPLQDPIQAQLFMPLYPQVSNMPNNQNHQINRIGGLEHQDLLRYNENGDSQQDARGEHVNTFPNNPNQNAQLQVGDWDE
notes: Mumps virus nucleoprotein (N), full-length gene 1–549, synthesized by GenScript, cloned into pET28b; Purified with enwrapped endogenous E. coli RNA; Only residues 1–373 are resolved in the maps; also called NWT; MuV nucleoproteins; source: E. coli, purified (nickel-nitrilotriacetic acid resin, Superose 6 gel filtration), freshly made
Take B1: the “stoichiometry N” value in series [2] was 13 protomers and 14 protomers.
